The results in this text go back to patent publication US20140271457A1 (AbbVie / Abbott, published 2014).

In this assay the target is Recombinant Human IL-13 (human, UniProt P35225 35-146, limits assumed). Description: cell-based or functional assay.
Sequence of Recombinant Human IL-13 (P35225 35-146 limits assumed): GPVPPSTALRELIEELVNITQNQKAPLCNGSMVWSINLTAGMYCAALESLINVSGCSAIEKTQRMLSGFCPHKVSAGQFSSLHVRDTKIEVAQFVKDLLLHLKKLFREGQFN

B1: DVD3109 (bispecific antibody, human IgG1, kappa)
heavy: not shown
light: DVVMTQSPLSLPVTLGQPASISCRSSQSLVHSHGNTYLHWYQQRPGQSPRLLIYTVSNRFSGVPDRFSGSGSGTDFTLKISRVEAEDVGVYYCSQSTHVPYTFGGGTKVEIKRTVAAPDIQMTQSPSSLSASVGDRVTITCRASQDISQYLNWYQQKPGKAPKLLIYYTSRLQSGVPSRFSGSGSGTDFTLTISSLQPEDFATYFCQQGNTWPPTFGQGTKLEIKRTVAAPSVFIFPPSDEQLKSGTASVVCLLNNFYPREAKVQWKVDNALQSGNSQESVTEQDSKDSTYSLSSTLTLSKADYEKHKVYACEVTHQGLSSPVTKSFNRGEC
Turning to B1, the “IL-13 Neutralization Assay IC50” value was found to be 0.044 nM.

B2: DVD3119 (bispecific antibody, human IgG1, kappa)
heavy: not shown
light: DVVMTQSPLSLPVTLGQPASISCRSSQSLVHSHGNTYLHWYQQRPGQSPRLLIYTVSNRFSGVPDRFSGSGSGTDFTLKISRVEAEDVGVYYCSQSTHVPYTFGGGTKVEIKRTVAAPDIQMTQSPSSLSASVGDRVTITCRASQDIENYLNWYQQKPGKAPKLLIYYTSRLQSGVPSRFSGSGSGTDFTLTISSLQPEDFATYFCQQGNTQPPTFGQGTKLEIKRTVAAPSVFIFPPSDEQLKSGTASVVCLLNNFYPREAKVQWKVDNALQSGNSQESVTEQDSKDSTYSLSSTLTLSKADYEKHKVYACEVTHQGLSSPVTKSFNRGEC
With B2, the “IL-13 Neutralization Assay IC50” value is 0.051 nM.

B3: DVD3122 (bispecific antibody, human IgG1, kappa)
heavy: not shown
light: DVVMTQSPLSLPVTLGQPASISCRSSQSLVHSHGNTYLHWYQQRPGQSPRLLIYTVSNRFSGVPDRFSGSGSGTDFTLKISRVEAEDVGVYYCSQSTHVPYTFGGGTKVEIKRTVAAPDIQMTQSPSSLSASVGDRVTITCRASQDIENYLNWYQQKPGKAPKLLIYYTSRLQSGVPSRFSGSGSGTDFTLTISSLQPEDFATYFCQQGNTQPPTFGQGTKLEIKRTVAAPSVFIFPPSDEQLKSGTASVVCLLNNFYPREAKVQWKVDNALQSGNSQESVTEQDSKDSTYSLSSTLTLSKADYEKHKVYACEVTHQGLSSPVTKSFNRGEC
Take B3: the “IL-13 Neutralization Assay IC50” value was 0.011 nM.

B4: DVD3112 (bispecific antibody, human IgG1, kappa)
heavy: not shown
light: DVVMTQSPLSLPVTLGQPASISCRSSQSLVHSHGNTYLHWYQQRPGQSPRLLIYTVSNRFSGVPDRFSGSGSGTDFTLKISRVEAEDVGVYYCSQSTHVPYTFGGGTKVEIKRTVAAPDIQMTQSPSSLSASVGDRVTITCRASQDISQYLNWYQQKPGKAPKLLIYYTSRLQSGVPSRFSGSGSGTDFTLTISSLQPEDFATYFCQQGNTWPPTFGQGTKLEIKRTVAAPSVFIFPPSDEQLKSGTASVVCLLNNFYPREAKVQWKVDNALQSGNSQESVTEQDSKDSTYSLSSTLTLSKADYEKHKVYACEVTHQGLSSPVTKSFNRGEC
In the case of B4, the “IL-13 Neutralization Assay IC50” value came out at 0.017 nM.

B5: DVD3111 (bispecific antibody, human IgG1, kappa)
heavy: not shown
light: DVVMTQSPLSLPVTLGQPASISCRSSQSLVHSHGNTYLHWYQQRPGQSPRLLIYTVSNRFSGVPDRFSGSGSGTDFTLKISRVEAEDVGVYYCSQSTHVPYTFGGGTKVEIKRTVAAPSVFIFPPDIQMTQSPSSLSASVGDRVTITCRASQDISQYLNWYQQKPGKAPKLLIYYTSRLQSGVPSRFSGSGSGTDFTLTISSLQPEDFATYFCQQGNTWPPTFGQGTKLEIKRTVAAPSVFIFPPSDEQLKSGTASVVCLLNNFYPREAKVQWKVDNALQSGNSQESVTEQDSKDSTYSLSSTLTLSKADYEKHKVYACEVTHQGLSSPVTKSFNRGEC
In the case of B5, the “IL-13 Neutralization Assay IC50” value was 0.018 nM.

B6: DVD3121 (bispecific antibody, human IgG1, kappa)
heavy: not shown
light: DVVMTQSPLSLPVTLGQPASISCRSSQSLVHSHGNTYLHWYQQRPGQSPRLLIYTVSNRFSGVPDRFSGSGSGTDFTLKISRVEAEDVGVYYCSQSTHVPYTFGGGTKVEIKRTVAAPSVFIFPPDIQMTQSPSSLSASVGDRVTITCRASQDIENYLNWYQQKPGKAPKLLIYYTSRLQSGVPSRFSGSGSGTDFTLTISSLQPEDFATYFCQQGNTQPPTFGQGTKLEIKRTVAAPSVFIFPPSDEQLKSGTASVVCLLNNFYPREAKVQWKVDNALQSGNSQESVTEQDSKDSTYSLSSTLTLSKADYEKHKVYACEVTHQGLSSPVTKSFNRGEC
On to B6, for which the “IL-13 Neutralization Assay IC50” value was determined as 0.013 nM.

B7: DVD3117 (bispecific antibody, human IgG1, kappa)
heavy: not shown
light: DIQMTQSPSSLSASVGDRVTITCRASQDIENYLNWYQQKPGKAPKLLIYYTSRLQSGVPSRFSGSGSGTDFTLTISSLQPEDFATYFCQQGNTQPPTFGQGTKLEIKRTVAAPDIQMTQSPSSLSASVGDRVTITCRASQLVSSAVAWYQQKPGKAPKLLIYWASARHTGVPSRFSGSGSGTDFTLTISSLQPEDFATYYCQQHYKTPFTFGQGTKLEIKRTVAAPSVFIFPPSDEQLKSGTASVVCLLNNFYPREAKVQWKVDNALQSGNSQESVTEQDSKDSTYSLSSTLTLSKADYEKHKVYACEVTHQGLSSPVTKSFNRGEC
On to B7, for which the “IL-13 Neutralization Assay IC50” value came to 0.015 nM.

B8: DVD3106 (bispecific antibody)
heavy: not shown
light: DIQMTQSPSSLSASVGDRVTITCRASQDISQYLNWYQQKPGKAPKLLIYYTSRLQSGVPSRFSGSGSGTDFTLTISSLQPEDFATYFCQQGNTWPPTFGQGTKLEIKRTVAAPSVFIFPPDVVMTQSPLSLPVTLGQPASISCRSSQSLVHSHGNTYLHWYQQRPGQSPRLLIYTVSNRFSGVPDRFSGSGSGTDFTLKISRVEAEDVGVYYCSQSTHVPYTFGGGTKVEIKRTVAAPSVFIFPPSDEQLKSGTASVVCLLNNFYPREAKVQWKVDNALQSGNSQESVTEQDSKDSTYSLSSTLTLSKADYEKHKVYACEVTHQGLSSPVTKSFNRGEC
For B8, the “IL-13 Neutralization Assay IC50” value came to 0.074 nM.

B9: DVD3116 (bispecific antibody)
heavy: not shown
light: DIQMTQSPSSLSASVGDRVTITCRASQDIENYLNWYQQKPGKAPKLLIYYTSRLQSGVPSRFSGSGSGTDFTLTISSLQPEDFATYFCQQGNTQPPTFGQGTKLEIKRTVAAPSVFIFPPDVVMTQSPLSLPVTLGQPASISCRSSQSLVHSHGNTYLHWYQQRPGQSPRLLIYTVSNRFSGVPDRFSGSGSGTDFTLKISRVEAEDVGVYYCSQSTHVPYTFGGGTKVEIKRTVAAPSVFIFPPSDEQLKSGTASVVCLLNNFYPREAKVQWKVDNALQSGNSQESVTEQDSKDSTYSLSSTLTLSKADYEKHKVYACEVTHQGLSSPVTKSFNRGEC
Take B9: the “IL-13 Neutralization Assay IC50” value worked out at 0.081 nM.

B10: DVD3159 (bispecific antibody, human IgG1, kappa)
heavy: not shown
light: DIQMTQSPSSLSASVGDRVTITCRASQGIRNYLNWYQQKPGKAPKLLIYYASNLEVGVPSRFSGSGSGTDYTLTISSLQPEDFATYYCQQDNRFPYTFGGGTKVEIKRTVAAPDIQMTQSPSSLSASVGDRVTITCKASQLVSSAVAWYQQKPGKAPKLLIYWASTLHTGVPSRFSGSGSGTDFTLTISSLQPEDFATYYCQQHYRTPFTFGQGTKLEIKRTVAAPSVFIFPPSDEQLKSGTASVVCLLNNFYPREAKVQWKVDNALQSGNSQESVTEQDSKDSTYSLSSTLTLSKADYEKHKVYACEVTHQGLSSPVTKSFNRGEC
Take B10: the “IL-13 Neutralization Assay IC50” value was 0.087 nM.

B11: DVD2688 (bispecific antibody, human IgG1, kappa)
heavy: not shown
light: DIQMTQSPSSLSASVGDRVTISCRASQDIRNYLNWYQQKPGKAPKLLIFYTSKLHSGVPSRFSGSGSGTDYTLTISSLQPEDIATYYCQQGLTPPLTFGGGTKVEIKRGGSGGGGSGDIQMTQSPSSLSASVGDRVTITCRASQLVSSAVAWYQQKPGKAPKLLIYWASARHTGVPSRFSGSGSGTDFTLTISSLQPEDFATYYCQQHYKTPFTFGQGTKLEIKRTVAAPSVFIFPPSDEQLKSGTASVVCLLNNFYPREAKVQWKVDNALQSGNSQESVTEQDSKDSTYSLSSTLTLSKADYEKHKVYACEVTHQGLSSPVTKSFNRGEC
For the molecule B11, the “IL-13 Neutralization Assay IC50” value came out at 0.094 nM.

B12: DVD3118 (bispecific antibody, human IgG1, kappa)
heavy: not shown
light: DVVMTQSPLSLPVTLGQPASISCRSSQSLVHSHGNTYLHWYQQRPGQSPRLLIYTVSNRFSGVPDRFSGSGSGTDFTLKISRVEAEDVGVYYCSQSTHVPYTFGGGTKVEIKRGGSGGGGSGDIQMTQSPSSLSASVGDRVTITCRASQDIENYLNWYQQKPGKAPKLLIYYTSRLQSGVPSRFSGSGSGTDFTLTISSLQPEDFATYFCQQGNTQPPTFGQGTKLEIKRTVAAPSVFIFPPSDEQLKSGTASVVCLLNNFYPREAKVQWKVDNALQSGNSQESVTEQDSKDSTYSLSSTLTLSKADYEKHKVYACEVTHQGLSSPVTKSFNRGEC
Take B12: the “IL-13 Neutralization Assay IC50” value came out at 0.013 nM.

B13: DVD3107 (bispecific antibody)
heavy: not shown
light: DIQMTQSPSSLSASVGDRVTITCRASQDISQYLNWYQQKPGKAPKLLIYYTSRLQSGVPSRFSGSGSGTDFTLTISSLQPEDFATYFCQQGNTWPPTFGQGTKLEIKRTVAAPDVVMTQSPLSLPVTLGQPASISCRSSQSLVHSHGNTYLHWYQQRPGQSPRLLIYTVSNRFSGVPDRFSGSGSGTDFTLKISRVEAEDVGVYYCSQSTHVPYTFGGGTKVEIKRTVAAPSVFIFPPSDEQLKSGTASVVCLLNNFYPREAKVQWKVDNALQSGNSQESVTEQDSKDSTYSLSSTLTLSKADYEKHKVYACEVTHQGLSSPVTKSFNRGEC
As to B13, the “IL-13 Neutralization Assay IC50” value stood at 0.029 nM.

B14: DVD3114 (bispecific antibody)
heavy: not shown
light: DIQMTQSPSSLSASVGDRVTITCRASQDIENYLNWYQQKPGKAPKLLIYYTSRLQSGVPSRFSGSGSGTDFTLTISSLQPEDFATYFCQQGNTQPPTFGQGTKLEIKRTVAAPDVVMTQSPLSLPVTLGQPASISCRSSQSLVHSHGNTYLHWYQQRPGQSPRLLIYTVSNRFSGVPDRFSGSGSGTDFTLKISRVEAEDVGVYYCSQSTHVPYTFGGGTKVEIKRTVAAPSVFIFPPSDEQLKSGTASVVCLLNNFYPREAKVQWKVDNALQSGNSQESVTEQDSKDSTYSLSSTLTLSKADYEKHKVYACEVTHQGLSSPVTKSFNRGEC
As to B14, the “IL-13 Neutralization Assay IC50” value was found to be 0.781 nM.

B15: DVD3113 (bispecific antibody)
heavy: not shown
light: DIQMTQSPSSLSASVGDRVTITCRASQDIENYLNWYQQKPGKAPKLLIYYTSRLQSGVPSRFSGSGSGTDFTLTISSLQPEDFATYFCQQGNTQPPTFGQGTKLEIKRGGSGGGGSGDVVMTQSPLSLPVTLGQPASISCRSSQSLVHSHGNTYLHWYQQRPGQSPRLLIYTVSNRFSGVPDRFSGSGSGTDFTLKISRVEAEDVGVYYCSQSTHVPYTFGGGTKVEIKRTVAAPSVFIFPPSDEQLKSGTASVVCLLNNFYPREAKVQWKVDNALQSGNSQESVTEQDSKDSTYSLSSTLTLSKADYEKHKVYACEVTHQGLSSPVTKSFNRGEC
As to B15, the “IL-13 Neutralization Assay IC50” value is 0.065 nM.

B16: DVD3158 (bispecific antibody, human IgG1, kappa)
heavy: not shown
light: DIQMTQSPSSLSASVGDRVTITCRASQGIRNYLNWYQQKPGKAPKLLIYYASNLEVGVPSRFSGSGSGTDYTLTISSLQPEDFATYYCQQDNRFPYTFGGGTKVEIKRGGSGGGGSGDIQMTQSPSSLSASVGDRVTITCKASQLVSSAVAWYQQKPGKAPKLLIYWASTLHTGVPSRFSGSGSGTDFTLTISSLQPEDFATYYCQQHYRTPFTFGQGTKLEIKRTVAAPSVFIFPPSDEQLKSGTASVVCLLNNFYPREAKVQWKVDNALQSGNSQESVTEQDSKDSTYSLSSTLTLSKADYEKHKVYACEVTHQGLSSPVTKSFNRGEC
Consider B16, for which the “IL-13 Neutralization Assay IC50” value came out at 0.137 nM.
